In PMC8799719:

Target: insoluble type I collagen fibers from bovine achilles tendon, P02453;P02465
Assay: fluorescence detection of EGFP fusion binding to collagen fibers
Settings: parent: est. 100; read off a plot

Substance	percent of parent
activator domain-EGFP (VhaC activator domain fused to EGFP) F160A	86%
activator domain-EGFP (VhaC activator domain fused to EGFP) R293A	93%
activator domain-EGFP (VhaC activator domain fused to EGFP) E294A	85%
activator domain-EGFP (VhaC activator domain fused to EGFP) R153A	32%
activator domain-EGFP (VhaC activator domain fused to EGFP) D207A	70%
activator domain-EGFP (VhaC activator domain fused to EGFP) W234A	69%
activator domain-EGFP (VhaC activator domain fused to EGFP) F107A	20%
activator domain-EGFP (VhaC activator domain fused to EGFP) F286A	51%
activator domain-EGFP (VhaC activator domain fused to EGFP) Y157A	42%
activator domain-EGFP (VhaC activator domain fused to EGFP) N290A	88%

Target: insoluble type I collagen fibers from bovine achilles tendon, P02453;P02465
Assay: fluorescence detection of EGFP fusion binding to collagen
Settings: parent: est. 100; read off a plot

Substance	percent of parent
EGFP-PPC (PPC domain of VhaC fused to EGFP) Y788A	73%
EGFP-PPC (PPC domain of VhaC fused to EGFP) E755A	51%
EGFP-PPC (PPC domain of VhaC fused to EGFP) Y791A	13%
EGFP-PPC (PPC domain of VhaC fused to EGFP) K753A	100%
EGFP-PPC (PPC domain of VhaC fused to EGFP) W729A	58%
EGFP-PPC (PPC domain of VhaC fused to EGFP) D751A	3%
EGFP-PPC (PPC domain of VhaC fused to EGFP) Y756A	9%
EGFP-PPC (PPC domain of VhaC fused to EGFP) E778A	21%
EGFP-PPC (PPC domain of VhaC fused to EGFP) W761A	7%
EGFP-PPC (PPC domain of VhaC fused to EGFP) W770A	100%
EGFP-PPC (PPC domain of VhaC fused to EGFP) W789A	19%
